For one assay, the target named is HLA-A*30:02. Nature of the assay: IEDB peptide-MHC binding, purified MHC/competitive/radioactivity; filed as Kd, often an IC50 or EC50 that approximates it; ≥ and ≤ were set here for values at or beyond the usual limits of such assays.
The target in assay [1] is HLA-B*44:02. Described as above.
In assay [2] the target is HLA-B*07:02. Described as above.
In assay [3] the target is HLA-B*15:01. The assay is described as above.
In the next assay the target is HLA-B*44:03. The assay is described as above.
A further assay has as its target HLA-A*03:01. Nature of the assay: IEDB peptide-MHC binding, purified MHC/direct/fluorescence; filed as Kd, often an IC50 or EC50 that approximates it; ≥ and ≤ were set here for values at or beyond the usual limits of such assays. Conditions: source organism: Brucella suis.
Assay [4] has as its target HLA-B*07:02. Described as above. Conditions: source organism: Brucella suis.
The target of assay [5] is HLA-B*15:01. Described as above. The conditions noted are these: source organism: Brucella suis.
The next assay concerns the target HLA-A*11:01. Described as above. The conditions noted are these: source organism: Brucella suis.
Assay [6] addresses HLA-B*44:02. Described as above. Conditions: source organism: Brucella suis.
The target in another assay is HLA-B*58:01. The assay is described as above.
Assay [7] concerns the target HLA-A*01:01. The assay is described as above. The conditions noted are these: source organism: Brucella suis.
A further assay has as its target HLA-A*69:01. The description is as above. Conditions: source organism: Brucella suis.
Assay [8] concerns the target HLA-A*02:01. The description is as above. Conditions: source organism: Brucella suis.
The target of another assay is HLA-A*31:01. Described as above. Conditions: source organism: Brucella suis.
For the next assay, the target named is HLA-B*27:05. The assay is described as above. The conditions noted are these: source organism: Brucella suis.
Assay [9] has as its target HLA-B*08:01. The assay is described as above. Conditions: source organism: Brucella suis.
In the next assay the target is HLA-A*26:01. The assay is described as above.
In a further assay the target is HLA-B*40:01. The assay is described as above. The conditions noted are these: source organism: Brucella suis.
In assay [10] the target is HLA-A*24:02. Nature of the assay: IEDB peptide-MHC binding, purified MHC/competitive/fluorescence; ≥ and ≤ were set here for values at or beyond the usual limits of such assays.
Assay [11] concerns the target HLA-B*08:01. Nature of the assay: IEDB peptide-MHC binding, purified MHC/competitive/radioactivity; filed as Kd, often an IC50 or EC50 that approximates it; ≥ and ≤ were set here for values at or beyond the usual limits of such assays.
Assay [12] deals with HLA-A*02:01. Nature of the assay: IEDB peptide-MHC binding, purified MHC/competitive/fluorescence; ≥ and ≤ were set here for values at or beyond the usual limits of such assays.
In the next assay the target is HLA-B*18:01. Nature of the assay: IEDB peptide-MHC binding, purified MHC/direct/fluorescence; filed as Kd, often an IC50 or EC50 that approximates it; ≥ and ≤ were set here for values at or beyond the usual limits of such assays. Conditions: source organism: West Nile virus.
Assay [13] has as its target HLA-A*01:01. Nature of the assay: IEDB peptide-MHC binding, purified MHC/competitive/radioactivity; filed as Kd, often an IC50 or EC50 that approximates it; ≥ and ≤ were set here for values at or beyond the usual limits of such assays.
Assay [14] has as its target HLA-A*24:02. The assay is described as above. Conditions: source organism: Dengue virus 2 Jamaica/1409/1983.
The target in the next assay is HLA-B*57:01. Nature of the assay: IEDB peptide-MHC binding, purified MHC/direct/fluorescence; filed as Kd, often an IC50 or EC50 that approximates it; ≥ and ≤ were set here for values at or beyond the usual limits of such assays. Conditions: source organism: Bacillus cereus.
[15] abbreviates: source organism: Dengue virus 1 Brazil/97-11/1997.
Setting [16] is: source organism: Dengue virus 3 Martinique/1243/1999.
Where [17] appears, read: source organism: Dengue virus 4 Philippines/H241/1956.
The mark [18] stands for this setting: source organism: Vaccinia virus WR.
[19] abbreviates: source organism: Zaire ebolavirus.
The mark [20] stands for this setting: source organism: Dengue virus 4 Dominica/814669/1981.

A value given as a limit tells only on which side of the number the result lay.

For the sequence AGGMLIACY, the Kd – broadly, the equilibrium constant for the complex coming apart – with HLA-A*30:02 (setting [15]) worked out at 460 nM. For the sequence AICSAVPVHW, the Kd with HLA-B*44:02 [1] (setting [16]) was found to be 2400 nM.

With APHHKILAKA, the Kd with HLA-B*07:02 [2] (setting [17]) amounted to 407 nM. Regarding AQKRTAAGIM, the Kd with HLA-B*15:01 [3] (setting [15]) was determined as 25.6 nM.

For DENPYKTWAY, the Kd in the assay with HLA-B*44:03 (setting [16]) turned out to be 8.64 nM. In the case of DVIGNDRQE, the Kd with HLA-A*03:01, with HLA-B*07:02 [4], in the assay with HLA-B*15:01 [5], with HLA-A*11:01, with HLA-B*44:02 [6] and in the assay with HLA-B*58:01 (source organism: Brucella suis) was at least 20000 nM throughout. Further, the Kd with HLA-A*01:01 [7], with HLA-A*69:01, with HLA-A*02:01 [8], with HLA-A*31:01, with HLA-B*27:05 and in the assay with HLA-B*08:01 [9] was at least 20000 nM each time. The Kd in the assay with HLA-A*26:01 (source organism: Brucella suis) and with HLA-B*40:01 was at least 20000 nM throughout. For the sequence ERPVILSLP, in the assay with HLA-A*24:02 [10] (source organism: Variola virus), the IC50 (usually the midpoint of a concentration-inhibition curve) came to 18400 nM. In turn, FGVDGEAGF showed a Kd with HLA-A*26:01 (source organism: Mycobacterium tuberculosis variant bovis) of at least 20000 nM.

For the sequence FIYLLFASM, the Kd amounted to 999 nM with HLA-B*15:01 [3] (setting [18]) and 1680 nM with HLA-B*08:01 [11] (setting [18]). FRFEVKKRD: the results for the IC50 in the assay with HLA-A*02:01 [12] (setting [19]) and with HLA-A*24:02 [10] (setting [19]) were at least 733000 nM and 19500 nM, respectively. For GCGRGGWSY, in the assay with HLA-A*30:02 (setting [16]), the Kd came to 439 nM. As for IEEVMRSRW, the Kd is 36.6 nM with HLA-B*44:03 (setting [15]) and 178 nM with HLA-B*44:02 [1] (setting [15]).

IESEKNETW: the Kd in the assay with HLA-B*44:03 (setting [15]) was 279 nM; with HLA-B*44:02 [1] (setting [15]), 87 nM. In the case of IQNSGGTSIF, the Kd in the assay with HLA-B*15:01 [3] (setting [16]) turned out to be 3.01 nM.

As to IQTSGTTTIF, the Kd in the assay with HLA-B*15:01 [3] (setting [15]) was 5.3 nM.

For IRWLGGILP, the values for the concentration for half-maximal inhibition (IC50) with HLA-A*02:01 [12] (setting [18]) and in the assay with HLA-A*24:02 [10] (setting [18]) were at least 156000 nM and 48100 nM, respectively. KENGVDLSV had a Kd with HLA-B*18:01 of 5220 nM. Turning to KFLLIHQGM, the IC50 with HLA-A*02:01 [12] (setting [19]) is at least 150000 nM; in the assay with HLA-A*24:02 [10] (setting [19]) it was 256 nM.

KPKGKVVDL: the Kd in the assay with HLA-B*07:02 [2] (setting [17]) came out at 43.4 nM; with HLA-B*08:01 [11] (setting [17]), 124 nM. Consider KQFKQDSKY, for which the Kd with HLA-B*15:01 [3] (source organism: Lymphocytic choriomeningitis virus (strain Armstrong) (clone 53b)) turned out to be 13 nM. For LALITVSGLY, the figures for the Kd with HLA-A*01:01 [13] (setting [17]) and with HLA-A*30:02 (setting [17]) were 12700 nM and 5.26 nM, respectively. LARVGRERL: in the assay with HLA-B*07:02 [2] (source organism: Dengue virus 2 Jamaica/1409/1983), the Kd amounted to 298 nM. As for LENVMWKQI, the equilibrium dissociation constant (Kd) with HLA-B*44:03 (setting [20]) came out at 157 nM; with HLA-B*44:02 [1] (setting [20]), 105 nM. For LESGAVKYL, the IC50 with HLA-A*02:01 [12] (setting [19]) is at least 222000 nM; in the assay with HLA-A*24:02 [10] (setting [19]), at least 128000 nM. As to LFMALVAFL, in the assay with HLA-A*24:02 [14], the Kd came out at 8200 nM. LGKCGSCVY: in the assay with HLA-B*15:01 [3] (setting [16]), the Kd is 110 nM.

For the sequence LGTIYGFIW, the Kd in the assay with HLA-B*58:01 (source organism: Bacillus cereus) was 6.3 nM; with HLA-B*57:01, 521 nM. As to LLSRYDEHF, in the assay with HLA-B*15:01 [3] (setting [18]), the Kd was found to be 54 nM.

Take LMCPDECPG: the Kd with HLA-B*15:01 [3] (setting [18]) is 899 nM. Take LSKSEFNTY: the values for the Kd in the assay with HLA-B*15:01 [3] (setting [15]), in the assay with HLA-A*01:01 [13] (setting [15]) and in the assay with HLA-A*30:02 (setting [15]) were 7.88 nM, 2740 nM and 11.1 nM, respectively.

The record behind these values is the Immune Epitope Database (IEDB).
